Results taken from US20190233517A1.

Assays:
Settings in all cases: remark: other sources report otherwise
Her3-his, P21860 = experiment: SPR
HER3, P21860 [1] = experiment: kinetic binding data, method not stated
HER3, P21860 [2] = experiment: kinetic binding data, method not stated; remark: listed apart in the source

Kd (Her3-his, P21860): 1.28 nM
Kd (HER3, P21860 [1]): 0.0302 nM
Kd (HER3, P21860 [2]): 0.9 nM
B1: Her3 antibody patritumab (antibody, V domains shown)
VH: QVQLQQWGAGLLKPSETLSLTCAVYGGSFSGYYWSWIRQPPGKGLEWIGEINHSGSTNYNPSLKSRVTISVETSKNQFSLKLSSVTAADTAVYYCARDKWTWYFDLWGRGTLVTVSS
VL: not shown
